Data published in PMC5435087.

What was measured:
Experiment in all cases: BLI
[1] = test system: Rosid dsrm1 (reconstructed ancestor (Rosids)); details: Label-free kinetics assay (ForteBio, biotinylated RNA on streptavidin probes, biocytin block), 1x Kinetics Buffer, pH 7; temperature and salt not stated …
[2] = test system: ancPlant dsrm2 (reconstructed ancestor (plant)); details: steady state; initial-rate Km 4.2 uM; Label-free kinetics assay (ForteBio, biotinylated RNA on streptavidin probes, biocytin block), 1x Kinetics Buffer, pH 7; temperature and salt not stated …
[3] = test system: ancPlant DRB4 dsrm1 (reconstructed ancestor (plant)); details: steady state; initial-rate Km 38.3 uM; Label-free kinetics assay (ForteBio, biotinylated RNA on streptavidin probes, biocytin block), 1x Kinetics Buffer, pH 7; temperature and salt not stated …
[4] = test system: ancestral dsrm1 before Rosid shift (reconstructed ancestor (plant)); details: Label-free kinetics assay (ForteBio, biotinylated RNA on streptavidin probes, biocytin block), 1x Kinetics Buffer, pH 7; temperature and salt not stated …
[5] = test system: ancAnimal dsrm3 (reconstructed ancestor (animal)); details: steady state; initial-rate Km 4.1 uM; Label-free kinetics assay (ForteBio, biotinylated RNA on streptavidin probes, biocytin block), 1x Kinetics Buffer, pH 7; temperature and salt not stated …
[6] = test system: ancestral TARBP2 dsrm1 + QV insertion (reconstructed ancestor (mammal)); details: Label-free kinetics assay (ForteBio, biotinylated RNA on streptavidin probes, biocytin block), 1x Kinetics Buffer, pH 7; temperature and salt not stated …; scale: fold lower affinity than ancestral TARBP2 dsrm1
[7] = test system: Eutherian PRKRA dsrm2 (reconstructed ancestor (Eutheria)); details: Label-free kinetics assay (ForteBio, biotinylated RNA on streptavidin probes, biocytin block), 1x Kinetics Buffer, pH 7; temperature and salt not stated …; scale: fold higher affinity than ancestral mammal PRKRA dsrm2
[8] = test system: ancPlant dsrm2 H31L (reconstructed ancestor (plant)); details: Label-free kinetics assay (ForteBio, biotinylated RNA on streptavidin probes, biocytin block), 1x Kinetics Buffer, pH 7; temperature and salt not stated …; scale: fold change in Kd
[9] = test system: ancestral plant DRB4 dsrm1 + H31 (reconstructed ancestor (plant)); details: Label-free kinetics assay (ForteBio, biotinylated RNA on streptavidin probes, biocytin block), 1x Kinetics Buffer, pH 7; temperature and salt not stated …; scale: fold higher affinity than ancestral plant DRB4 dsrm1
[10] = test system: Boreoeutherian TARBP2 dsrm1 (reconstructed ancestor (Boreoeutheria)); details: Label-free kinetics assay (ForteBio, biotinylated RNA on streptavidin probes, biocytin block), 1x Kinetics Buffer, pH 7; temperature and salt not stated …; scale: fold lower affinity than ancestral TARBP2 dsrm1
[11] = test system: ancAnimal dsrm (reconstructed ancestor (animal)); details: Label-free kinetics assay (ForteBio, biotinylated RNA on streptavidin probes, biocytin block), 1x Kinetics Buffer, pH 7; temperature and salt not stated …
[12] = test system: ancPlant dsrm + dsrm2 alpha2 (reconstructed ancestor (plant)); details: Label-free kinetics assay (ForteBio, biotinylated RNA on streptavidin probes, biocytin block), 1x Kinetics Buffer, pH 7; temperature and salt not stated …
[13] = test system: ancAnimal dsrm + dsrm1 substitutions (reconstructed ancestor (animal)); details: Label-free kinetics assay (ForteBio, biotinylated RNA on streptavidin probes, biocytin block), 1x Kinetics Buffer, pH 7; temperature and salt not stated …
[14] = test system: ancestral plant DRB4 dsrm1 (before Fabaceae shift) (reconstructed ancestor (plant)); details: Label-free kinetics assay (ForteBio, biotinylated RNA on streptavidin probes, biocytin block), 1x Kinetics Buffer, pH 7; temperature and salt not stated …
[15] = test system: ancAnimal dsrm + dsrm3 substitutions (reconstructed ancestor (animal)); details: Label-free kinetics assay (ForteBio, biotinylated RNA on streptavidin probes, biocytin block), 1x Kinetics Buffer, pH 7; temperature and salt not stated …
[16] = test system: ancAnimal dsrm2 (reconstructed ancestor (animal)); details: steady state; initial-rate Km 22.9 uM; Label-free kinetics assay (ForteBio, biotinylated RNA on streptavidin probes, biocytin block), 1x Kinetics Buffer, pH 7; temperature and salt not stated …
[17] = test system: ancPlant dsrm (reconstructed ancestor (plant)); details: Label-free kinetics assay (ForteBio, biotinylated RNA on streptavidin probes, biocytin block), 1x Kinetics Buffer, pH 7; temperature and salt not stated …
[18] = test system: ancAnimal dsrm1 (reconstructed ancestor (animal)); details: steady state; initial-rate Km 4.2 uM; Label-free kinetics assay (ForteBio, biotinylated RNA on streptavidin probes, biocytin block), 1x Kinetics Buffer, pH 7; temperature and salt not stated …
[19] = test system: ancPlant DRB6 dsrm2 (reconstructed ancestor (plant)); details: steady state; initial-rate Km 24.8 uM; Label-free kinetics assay (ForteBio, biotinylated RNA on streptavidin probes, biocytin block), 1x Kinetics Buffer, pH 7; temperature and salt not stated …

Substance: short dsRNA
- Kd [1]: 4.89 pKd
- Kd [2]: 5.2 µM
- Kd [3]: 38.9 µM
- Kd [4]: 4.41 pKd
- Kd [5]: 3.2 µM
- binding signal [6]: 10
- binding signal [7]: 3.79
- binding signal [8]: 6.6
- binding signal [9]: 8.1
- binding signal [10]: 10
- Kd [11]: 17.2 µM
- binding signal (fold higher affinity than ancPlant dsrm) [12]: 9.1
- binding signal (fold higher affinity than ancAnimal dsrm) [13]: 3
- Kd [14]: 4.31 pKd
- binding signal (fold higher affinity than ancAnimal dsrm) [15]: 4.3
- Kd [16]: 24.6 µM
- Kd [17]: 59.2 µM
- Kd [18]: 4 µM
- Kd [19]: 24.4 µM
